According to patent publication US20210147922:

Legend:
Assay in all cases: cell_activity
[1] = tested on: GA7_EK TALEN right monomer; conditions: GA7_EK pair, CD34+ cells; GA7 50%
[2] = tested on: GA7_R TALEN right monomer; conditions: paired with GA7_L, 2 ug per monomer, CD34+ cells
[3] = tested on: GA6_L19 TALEN left monomer; conditions: paired with GA6_R, K562 cells
[4] = tested on: GA6_EK TALEN right monomer; conditions: GA6_EK pair; GA6 54% in same table
[5] = tested on: GA6_R TALEN right monomer; conditions: paired with GA6_L, 2 ug mRNA per monomer, K562 cells
[6] = tested on: GA6_L17 TALEN left monomer; conditions: paired with GA6_R, K562 cells
[7] = tested on: AAVS1_L TALEN left monomer; conditions: paired with AAVS1_R, 2 ug per monomer, K562 cells
[8] = tested on: GA6_EK TALEN left monomer; conditions: GA6_EK pair; GA6 54% in same table
[9] = tested on: GA6_L (GA6_L14) TALEN left monomer; conditions: paired with GA6_R, K562 cells
[10] = tested on: GA7_EK TALEN left monomer; conditions: GA7_EK pair, CD34+ cells; GA7 50%
GA7_L TALEN left monomer = conditions: paired with GA7_R, 2 ug per monomer, CD34+ cells
[11] = tested on: AAVS1_R TALEN right monomer; conditions: paired with AAVS1_L, 2 ug per monomer, K562 cells

ATGGTAGAGAATGAGAGGGGGA (double strand) [GA7 right half-site (printed top strand)]
activity [1]: 20 % editing
activity [2]: 70 % editing

TGGAGTGTGTAACAATGCCT (double strand) [GA6_L19 left half-site]
activity [3]: 86 % editing

AGTGCATGGCTGCAATGTGTGA (double strand) [GA6 right half-site (printed top strand)]
activity [4]: 36 % editing
activity [5]: 91 % editing

TGTGTAACAATGCCTGTG (double strand) [GA6_L17 left half-site]
activity [6]: 98 % editing

TCCCCTCCACCCCACAGT (double strand) [AAVS1 left half-site]
activity [7]: 93 % editing

TGTGTAACAATGCCT (double strand) [GA6 left half-site]
activity [8]: 36 % editing
activity [9]: 96 % editing

TGCTCAGCCCAGCTCAGCCT (double strand) [GA7 left half-site]
activity [10]: 20 % editing
activity (GA7_L TALEN left monomer): 70 % editing

AGGATTGGTGACAGAAA (double strand) [AAVS1 right half-site (printed top strand)]
activity [11]: 93 % editing
